{
  "source": "patent US20030054439A1",
  "about": "(Amgen, published 2003)",
  "molecular_target": "TNFα from R&D Systems (L929 cytotoxicity assay)",
  "assay": "cell-based or functional assay",
  "data": [
    {"binder": "sTNFR-I 3D/N105 (receptor) DSVCPQGKYIHPQNNSICCTKCHKGTYLYNDCPGPGQDTDCRECESGSFTASENHLRHCLSCSKCRKEMGQVEISSCTVDRDTVCGCRKNQYRHYWSENLFQCFNCSLCLNGTVHLSCQEKQNTVCT", "values": [
      {"measurement": "ED50 (ng/mL), L929 cytotoxicity assay, run #2, single data point", "value": 413, "unit": "ng/mL"}
    ]}
  ]
}
